Measurements: the supplement of paper PMC10567573

B1: NP_002788.1 (parent)
chain: DGWIRVSSDNVADLHEKYSGSTP

Variants of: B1
Assay: protein stability index of a GFP-peptide fusion (GPS, HEK-293T) (PSI 1-6); higher = more stable
Settings: c terminus: native
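Further: lentivirally expressed fusion library, cells FACS-sorted into six equal-sized GFP/DsRed ratio bins, PSI computed from sequencing read fractions per bin weighted by bin number.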

Protein stability index: each site, then its substitutions
V11: K 1.78, R 1.87, N 2.69, M 2.64, W 2.4, Q 2.38, T 2.48, S 2.47, P 2.73, Y 2.67, L 2.21
G20: A 3.8, D 4.65, C 2.82, F 3.63, H 3.79, E 4.64
E16: N 2.95, Q 2.87, W 2.65, S 2.64, I 2.58, F 2.46, A 2.5, V 2.92, L 2.76, D 2.58, G 3.13, P 3.32, R 2.97, M 2.53, Y 2.87, T 2.8, K 3.12, C 2.62, H 2.67
A12: T 2.43, E 2.52, R 2.46, I 2.59, C 2.57, M 2.3, W 2.46, N 2.48, G 2.68, V 2.44, L 2.88, Y 2.73, F 2.32, Q 2.25, K 2.33, S 2.24, P 2.45, H 2.85
H15: W 2.39, P 3.06, S 2.47, T 2.77, M 2.64, V 2.4, G 2.71, A 2.51, N 2.92, Q 2.76, R 2.33, E 2.98, D 2.85, K 2.77, F 2.82, C 2.73, L 2.66, I 2.68, Y 2.42
D13: R 2.04, C 2.6, P 2.3, A 2.66, N 2.4, W 2.71, L 2.58, V 2.75, K 2.71, G 2.42, I 2.53, Y 2.54, T 2.47, E 2.72, H 2.38, F 2.62, Q 2.47, S 2.52, M 2.53
K17: A 3.52, E 3.47, L 3.06, N 3.33, F 3.36, P 3.69, V 3.18, H 3.24, T 3.27, Q 3.16, W 2.97, S 3.41, M 3.19, C 3.04, D 3.58, G 3.75, I 3.12, Y 3.34
S19: Q 2.41, N 3.07, G 3.02, Y 2.47, M 2.28, H 2.56, I 2.49, E 2.87, K 1.95, D 3.5, W 2.68, P 2.34, V 2.94, C 2.9, L 2, T 2.47, R 2.34, A 2.26, F 2.82
L14: T 2.86, S 3.01, K 2.37, R 2.41, W 2.62, Y 2.5, H 2.06, N 2.98, G 3.47, A 2.84, C 2.92, I 2.35, M 2.65, D 2.89, E 2.74, Q 2.89, P 2.57, V 2.36, F 1.96
Y18: W 2.81, T 3.66, P 4.33, A 3.39, D 3.64, V 3.22, F 2.44, Q 3.46, C 3.09, G 3.6, I 3.11, L 2.69, R 3.3, K 4.17, H 2.68, E 3.23, S 3.6, M 2.92, N 3.13
